# Laboratory results published in patent publication US20100093623A1, “COMPOSITIONS AND METHODS FOR […]-LIKE RECEPTOR ACTIVITY AND USES THEREOF” (Burnham Institute for Medical Research, priority 2008, published 2010).
# T1: NLRP1 (Homo sapiens, UniProt Q9C000)
# T1 sequence (Q9C000 1-1473): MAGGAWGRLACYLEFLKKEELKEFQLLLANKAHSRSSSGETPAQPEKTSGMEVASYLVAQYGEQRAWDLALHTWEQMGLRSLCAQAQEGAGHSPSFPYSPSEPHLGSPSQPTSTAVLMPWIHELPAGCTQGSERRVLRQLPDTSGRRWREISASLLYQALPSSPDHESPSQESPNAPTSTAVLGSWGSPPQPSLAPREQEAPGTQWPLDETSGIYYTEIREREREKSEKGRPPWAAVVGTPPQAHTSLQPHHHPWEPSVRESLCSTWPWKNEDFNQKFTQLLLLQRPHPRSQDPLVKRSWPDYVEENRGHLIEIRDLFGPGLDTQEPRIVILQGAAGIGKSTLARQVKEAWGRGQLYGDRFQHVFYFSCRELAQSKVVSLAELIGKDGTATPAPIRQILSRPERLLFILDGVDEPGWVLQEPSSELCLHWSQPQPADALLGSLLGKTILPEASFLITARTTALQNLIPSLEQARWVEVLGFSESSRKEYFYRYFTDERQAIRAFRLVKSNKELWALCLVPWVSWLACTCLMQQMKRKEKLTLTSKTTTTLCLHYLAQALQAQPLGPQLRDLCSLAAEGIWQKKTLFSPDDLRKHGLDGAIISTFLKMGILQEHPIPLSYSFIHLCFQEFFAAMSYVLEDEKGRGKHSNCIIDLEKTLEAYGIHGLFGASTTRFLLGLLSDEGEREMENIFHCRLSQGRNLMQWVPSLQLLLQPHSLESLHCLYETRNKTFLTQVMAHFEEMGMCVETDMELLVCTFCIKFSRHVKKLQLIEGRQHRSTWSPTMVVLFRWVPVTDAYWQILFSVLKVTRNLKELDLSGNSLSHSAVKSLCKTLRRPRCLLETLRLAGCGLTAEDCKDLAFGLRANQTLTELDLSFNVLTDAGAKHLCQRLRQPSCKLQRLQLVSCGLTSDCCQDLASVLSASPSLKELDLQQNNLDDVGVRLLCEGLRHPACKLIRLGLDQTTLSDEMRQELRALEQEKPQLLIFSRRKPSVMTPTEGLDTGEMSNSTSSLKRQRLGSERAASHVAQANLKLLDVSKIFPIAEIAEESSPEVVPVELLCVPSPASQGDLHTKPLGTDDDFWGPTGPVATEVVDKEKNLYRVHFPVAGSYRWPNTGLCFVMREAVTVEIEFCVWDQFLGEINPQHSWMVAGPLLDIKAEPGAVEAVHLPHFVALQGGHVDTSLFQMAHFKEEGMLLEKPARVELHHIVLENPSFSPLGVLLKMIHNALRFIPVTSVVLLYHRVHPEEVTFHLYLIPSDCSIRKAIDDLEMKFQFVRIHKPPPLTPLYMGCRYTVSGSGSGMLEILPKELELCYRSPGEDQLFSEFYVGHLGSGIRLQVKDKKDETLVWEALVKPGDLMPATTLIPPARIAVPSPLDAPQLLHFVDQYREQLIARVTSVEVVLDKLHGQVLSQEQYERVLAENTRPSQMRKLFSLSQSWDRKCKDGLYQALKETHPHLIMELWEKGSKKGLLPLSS
# Target: T1, NLRP1
# Assay: FITC-ATP binding to NLRP1 by fluorescence polarization assay (FPA)
# Details: protein 1 μM at excess; NLRP1 0.125 μM; FITC-ATP 10 nM; MDP-LD 1 μM
molecule,measurement,value
"Bid: control protein (Bcl-2 family) (protein, UniProt P55957 1-195, looked up) BH3-interacting domain death …: MDCEVNNGSSLRDECITNLLVFGFLQSCSDNSFRRELDALGHELPVLAPQWEGYDELQTDGNRSSHSRLGRIEADSESQEDIIRNIARHLAQVGDSMDRSIPPGLVNGLALQLRNTSRSEEDRNRDLATALEQLLQAYPRDMEKEKTMLVLALLLAKKVASHTPSLLRDVFHTTVNFINQNLRTYVRSLARNGMD",reduction of FITC-ATP binding to NLRP1,negligible effects
